Key:
[1] = target: RSV-F (Strain RSS-2) (respiratory syncytial virus (Strain RSS-2)) (UniProt P11209); test: ELISA, antigen coated on plate, same conditions as R66
[2] = target: RSV-F (Strain A2) (respiratory syncytial virus (Strain A2)) (UniProt P03420); test: as above
RSV-F (Strain A2) = target: T1, RSV-F (Strain A2) (respiratory syncytial virus (Strain A2), UniProt P03420 26-529); test: ELISA, antigen coated on plate, anti-human IgG-HRP detection
T1 construct: Bought protein (Sino Biological Inc.), coated on the ELISA plate; also called glycoprotein F; antigen F of RSV
Description: (§1) To prepare coating antigen solution, RSV-F (Strain A2) and RSV-F (Strain RSS-2) (purchased from Sino Biological Inc.) were diluted with PBS (1×) (pH 7.4) buffer to the final concentration of 2 ng/μl. 100 μl of the coating antigen solution was pipetted into each well of a 96-well plate, coated overnight at 2-8° C., and washed 5 times with PBST, then each well was added with 200 μl of blocking solution for blocking for 2 hours at 37° C., and washed 5 times with PBST for 1 minute each wash after completion of blocking.
(§2) Two parallel experiments were performed, and two blank wells were set up to replace the primary antibody with PBST, incubated for 90 minutes at 37° C. and then washed 5 times with PBST.
(§3) The secondary antibody was diluted 5,000 times with the antibody diluent (PBST+1% BSA). 100 μl of diluent was added to each well, incubated for 1 hour at 37° C., then washed 5 times with PBST, added with TMB substrate solution with 100 μl/well, incubated for 15 minutes at room temperature. After the completion of the incubation H₂SO₄ stop solution was added to terminate the reaction. The absorbance of OD₄₅₀ was read on the microplate reader.

RSV-F (Strain RSS-2) = target: T2, RSV-F (Strain RSS-2) (respiratory syncytial virus (Strain …, UniProt P11209 26-529)); test: as above
T2 construct: Bought protein (Sino Biological Inc.), coated on the ELISA plate; also called glycoprotein F; antigen F of RSV
T2 sequence (P11209 26-529): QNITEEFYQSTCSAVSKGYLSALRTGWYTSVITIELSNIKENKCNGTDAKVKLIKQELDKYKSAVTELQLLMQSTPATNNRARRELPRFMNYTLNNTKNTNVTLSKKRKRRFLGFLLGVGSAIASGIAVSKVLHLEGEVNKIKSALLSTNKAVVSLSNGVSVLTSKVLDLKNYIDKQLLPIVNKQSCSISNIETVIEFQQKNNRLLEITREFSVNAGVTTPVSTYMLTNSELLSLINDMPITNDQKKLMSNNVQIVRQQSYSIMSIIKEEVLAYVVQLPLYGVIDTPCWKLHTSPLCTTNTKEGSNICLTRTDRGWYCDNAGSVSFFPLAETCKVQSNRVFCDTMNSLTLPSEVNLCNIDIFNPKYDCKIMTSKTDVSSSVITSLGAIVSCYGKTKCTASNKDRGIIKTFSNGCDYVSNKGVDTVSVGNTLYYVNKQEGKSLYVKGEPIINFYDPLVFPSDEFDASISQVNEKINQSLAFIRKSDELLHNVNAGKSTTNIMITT
Description: as §1, §2, §3

Chain of RSV-F (Strain RSS-2) (respiratory syncytial virus (Strain RSS-2)) (P11209 26-529): as above
T1 sequence (P03420 26-529): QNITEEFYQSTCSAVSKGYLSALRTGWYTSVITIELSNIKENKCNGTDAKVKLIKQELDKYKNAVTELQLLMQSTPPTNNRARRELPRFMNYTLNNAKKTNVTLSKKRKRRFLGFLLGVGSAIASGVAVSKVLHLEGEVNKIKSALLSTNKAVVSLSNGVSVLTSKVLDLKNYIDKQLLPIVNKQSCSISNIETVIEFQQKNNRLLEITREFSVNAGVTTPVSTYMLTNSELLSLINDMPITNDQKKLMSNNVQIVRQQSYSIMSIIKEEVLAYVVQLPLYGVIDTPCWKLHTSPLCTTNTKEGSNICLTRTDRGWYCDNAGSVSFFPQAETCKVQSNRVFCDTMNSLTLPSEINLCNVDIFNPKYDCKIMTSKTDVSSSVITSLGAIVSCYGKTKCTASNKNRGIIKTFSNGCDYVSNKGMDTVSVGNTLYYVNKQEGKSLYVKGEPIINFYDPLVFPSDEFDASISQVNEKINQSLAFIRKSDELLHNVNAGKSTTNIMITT
Chain of RSV-F (Strain A2) (respiratory syncytial virus (Strain A2)) (P03420 26-529): as above

Molecule Palivizumab Synagis (antibody) has an EC50 [1] of 1.88 ng/mL and an EC50 [2] of 4.88 ng/mL.

B1: fully human anti-RSV monoclonal antibody R66 (antibody, V domains shown)
VH: EVQLVESGGGLVQPGRSLRLSCTASGFTFADYSMTWVRQAPGKGLEWVGLIKRNAYGGTTEYAASVRGRFTISRDDSRSIAYLQMHSLKSEDTAVYFCLRGYSGYDWEGLDAFEVWGQGTMVTVSS
VL: DIQMTQSPSAMSASVGDRVTITCRASQGSSTYLAWFQQKPGKVPKRLIYAVSSLQSGVPSRFSGSGSGTEFTLTISSLQPEDSATYYCLQHNSFPLTFGQGTKVEIK
notes: expressed in 293T cells, Protein A purified; heavy chain about 50 kDa, light chain about 22 kDa; also called R66 antibody
With B1 the EC50 (RSV-F (Strain A2)) was 1.79 ng/mL and the EC50 (RSV-F (Strain RSS-2)) was 1.46 ng/mL.

From patent US20180264103A1 (ELITEIMMUNE, published 2018)
